# Assays:
# mouse PD-L1 = mouse PD-L1 (mouse, UniProt Q9EP73 19-239, limits assumed); assay: assay not described
# recombinant human PD-L1 = target: T1, recombinant human PD-L1 (human, UniProt Q9NZQ7 19-238, limits assumed); assay: ELISA on human PD-L1, OD 650 nm
# T1 construct: also called PD-L1 protein
# human PD-L1 on cells [1] = target: T2, human PD-L1 on cells (human, UniProt Q9NZQ7 19-290); assay: flow cytometry on HEK PD-L1 cells, MFI
# T2 construct: whole, on cells; also called HEK-PD-L1 cells; PD-L1-expressing HEK 293 cells
# T2 sequence (Q9NZQ7 19-290): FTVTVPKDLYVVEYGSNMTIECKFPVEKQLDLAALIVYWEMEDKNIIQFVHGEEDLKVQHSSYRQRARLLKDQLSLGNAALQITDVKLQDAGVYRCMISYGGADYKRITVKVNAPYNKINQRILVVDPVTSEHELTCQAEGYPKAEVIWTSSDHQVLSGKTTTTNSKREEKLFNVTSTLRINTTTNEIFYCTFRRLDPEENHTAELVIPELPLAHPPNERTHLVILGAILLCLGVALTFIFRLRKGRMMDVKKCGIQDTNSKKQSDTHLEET
# human PD-L1 on cells [2] = target: T2, human PD-L1 on cells; assay: flow cytometry on activated CD4 T cells, MFI
# human PD-L1 on cells [3] = target: T2, human PD-L1 on cells; assay: flow cytometry on HEK-PD-L1 cells; PE anti-human Fc, MFI
# human PD-L1 on cells [4] = target: T2, human PD-L1 on cells; assay: flow cytometry on monocyte-derived dendritic cells, MFI
# human PD-L1 on cells [5] = target: T2, human PD-L1 on cells; assay: flow cytometry on HEK PD-L1 cells, saturation fit on a linear axis
# human PD-L1 on cells [6] = target: T2, human PD-L1 on cells; assay: flow cytometry on monocyte-derived dendritic cells; PE anti-human Fc, MFI
# Experimental: The chimeric PD-L1 antibodies were further assessed for their ability to bind to human myeloid-derived dendritic cells. CD14 monocytes were isolated from PBMC using directly conjugated magnetic beads (Miltenyi) and cultured for 7 days in the presence of GM-CSF (100 ng/ml) and IL-4 (50 ng/ml) (Peprotech) to generate myeloid dendritic cells (mDC). mDC were added to 96-well plates (100,000 cells/well) and serial dilution of anti-PD-L1 antibodies or IgG1 isotype control antibody was added in duplicates and plates were incubated for 30 min on ice. After washing, a PE-conjugated donkey anti-human Fc specific antibody (Jackson Immunoresearch, 1:200 dilution) was added and plates were further incubated for 15 minutes on ice. After washing, cells were analyzed using a MACS quant flow cytometer.
# human PD-L1 on cells [7] = target: T2, human PD-L1 on cells; assay: flow cytometry on activated CD4 T cells, saturation fit on a linear axis
# human PD-L1 on cells [8] = target: T2, human PD-L1 on cells; assay: flow cytometry on human PD-L1 transfected HEK 293 cells; PE anti-human Fc, MFI
# Experimental: Stable human PD-L1 transfected HEK 293 cells (Crown Bio, San Diego, Calif.) were added to 96-well plates (100,000 cells/well) and serial dilution of anti-PD-L1 antibodies or IgG1 isotype control antibody was added in duplicates and plates were incubated for 30 minutes on ice. After washing, a PE-conjugated donkey anti-human Fc specific antibody (Jackson Immunoresearch, West Grove, Pa. 1:200 dilution) was added and plates were further incubated for 15 minutes on ice. After washing, cells were analyzed using a MACS quant flow cytometer.
# human PD-L1 on cells [9] = target: T2, human PD-L1 on cells; assay: flow cytometry on monocyte-derived dendritic cells, saturation fit on a linear axis
# [10] = target: T3, recombinant cynomolgus monkey PD-L1 (cynomolgus monkey, UniProt G7PSE7 19-238); assay: direct ELISA on plate-coated recombinant cynomolgus monkey PD-L1; anti-human Fc-HRP, TMB, OD 650 nm
# T3 construct: also called cynomolgus macaque PD-L1
# T3 sequence (G7PSE7 entry or part of it limits assumed): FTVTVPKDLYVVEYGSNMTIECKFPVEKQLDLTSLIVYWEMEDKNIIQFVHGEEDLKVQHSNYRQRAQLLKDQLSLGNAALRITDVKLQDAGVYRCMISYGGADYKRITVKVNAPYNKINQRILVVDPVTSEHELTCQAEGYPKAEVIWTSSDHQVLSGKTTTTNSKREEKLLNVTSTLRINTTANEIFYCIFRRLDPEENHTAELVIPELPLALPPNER
# Experimental: To assess specificity of the selected clones, a direct ELISA for human and cynomolgus monkey PD-L1 was performed. ELISA plates were coated with recombinant human or cynomolgus monkey PD-L1. […] Serial dilutions of chimeric anti-PD-L1 antibodies were added, and a secondary HRP-conjugated, anti-human Fc-specific antibody was added. After washing, TMB substrate was added and plates were read at OD 650 nm.
# human PD-L1 on cells [11] = target: T2, human PD-L1 on cells; assay: flow cytometry on HEK-PD-L1 cells, saturation fit on a linear axis; column head prints only Kd, unit taken from the axis Ab (nM)
# [12] = target: T4, human PD-L1-his (Sino Biologics) (human, UniProt Q9NZQ7 19-238); assay: competition ELISA: human PD-L1-his coated at 1 µg/ml, antibody dilutions, then human PD-1-mouse-Fc at 1 µg/ml, anti-mouse IgG-HRP, OD 650 nm
# T4 construct: Bought from Sino Biologics; not shown: his tag
# T4 sequence (Q9NZQ7 19-238 limits assumed): as the sequence (G7PSE7 entry or part of it limits assumed) above, with T33A, S34A, N62S, Q68R, R82Q, L173F, A185T, I192T, L215H counted along it
# Experimental: Plates were coated with 100 μl of 1 μg/ml human PD-L1-his (Sino Biologics, Beijing, China) in carbonate-bicarbonate buffer overnight. After washing, plates were blocked with PBS 0.05% Tween-20 for 1 hour, and serial dilutions of anti-PD-L1 human chimeric antibody or IgG1 isotype control antibody was added. […] After washing, goat anti-mouse IgG (H+L)-HRP antibody (Jackson ImmunoResearch West Grove, Pa.) and plates were further incubated for 1 hour. After washing, TMB substrate (SurModics, Eden Prairie, Minn.) was added. The reaction was stopped using stop solution (SurModics) and plates were read at OD=650 nanometer.
# human PD-L1 on cells [13] = target: T2, human PD-L1 on cells; assay: flow cytometry on CD4 T cells activated with anti-CD3; MFI; column head prints only EC50, unit taken from the axis Antibody Concentration (nM)
# T1 sequence (Q9NZQ7 19-238 limits assumed): as the sequence (G7PSE7 entry or part of it limits assumed) above, with T33A, S34A, N62S, Q68R, R82Q, L173F, A185T, I192T, L215H counted along it
# Sequence of mouse PD-L1 (Q9EP73 19-239 limits assumed): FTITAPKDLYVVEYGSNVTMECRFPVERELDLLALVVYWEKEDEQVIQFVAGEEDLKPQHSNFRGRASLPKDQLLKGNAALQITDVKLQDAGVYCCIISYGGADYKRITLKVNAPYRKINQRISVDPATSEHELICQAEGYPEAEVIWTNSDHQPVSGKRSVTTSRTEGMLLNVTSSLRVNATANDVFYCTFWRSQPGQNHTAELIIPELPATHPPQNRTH
binder,measurement,setting,value
"chimeric anti-PD-L1 antibody 9A9 (antibody, human IgG1, V domains shown, also called c9A9; chimeric 9A9) VH: QSVEESGGRLVTPGTPLTLTCTVSGIDLSGYWMSWVRQAPGKGLEYIGIVDNDGSAYYASWVNGRFTISKTSTTVDLKITSPTTEDTATYFCARQSGDWTFDLWGPGTLVTVSS VL: DVVMTQTPASVSEPVGGTVTIKCQASQSIGRWLSWYQQKPGQPPKLLIYQASKLASGVPSRFSGSGSGTEFTLTISDLECADAATYYCQNNYDIIAYGNAFGGGTEVVVK",binding result,mouse PD-L1,no binding
same,EC50,recombinant human PD-L1,7.13 ng/mL
same,EC50,human PD-L1 on cells [1],270 pM
same,EC50,human PD-L1 on cells [2],19 pM
same,EC50 (read off the curve),human PD-L1 on cells [3],~400 pM
same,EC50,human PD-L1 on cells [4],1660 pM
same,Kd,human PD-L1 on cells [5],160 pM
same,EC50,human PD-L1 on cells [6],400 pM
same,Kd,human PD-L1 on cells [7],15 pM
same,EC50,human PD-L1 on cells [8],170 pM
same,Kd,human PD-L1 on cells [9],790 pM
same,EC50 (read off the curve),[10],~4 ng/mL
same,Kd,human PD-L1 on cells [11],300 pM
same,IC50 (read off the curve),[12],~20 ng/mL
same,EC50,human PD-L1 on cells [13],680 pM

# — patent publication US20190218296A1 (APEXIGEN, published 2019)
